{
  "source": "patent US7018836",
  "proteins": {"B1": {"name": "Drosophila P-TEFb (protein)", "chain 1": "MAHMSHMLQQPSGSTPSNVGSSSSRTMSLMEKQKYIEDYDFPYCDESNKYEKVAKIGQGTFGEVFKAREKKGNKKFVAMKKVLMDNEKEGFPITALREIRILQLLKHENVVNLIEICRTKATATNGYRSTFYLVFDFCEHDLAGLLSNMNVKFSLGEIKKVMQQLLNGLYYIHSNKILHRDMKAANVLITKHGILKLADFGLARAFSIPKNESKNRYTNRVVTLWYRPPELLLGDRNYGPPVDMWGAGCIMAEMWTRSPIMQGNTEQQQLTFISQLCGSFTPDVWPGVEELELYKSIELPKNQKRRVKERLRPYVKDQTGCDLLDKLLTLDPKKRIDADTALNHDFFWTDPMPSDLSKMLSQHLQSMFEYLAQPRRSNQMRNYHQQLTTMNQKPQDNSMIDRVW", "chain 2": "MSLLATPMPQAATASSSSSASAAASASGIPITANNNLPFEKDKIWYFSNDQLANLPSRRCGIKGDDELQYRQMTAYLIQEMGQRLQVSQLCINTAIVYMHRFYAFHSFTHFHRNSMASASLFLAAKVEEQPRKLEHVIRAANKCLPPTTEQNYAELAQELVFNENVLLQTLGFDVAIDHPHTHVVRTCQLVKACKDLAQTSYFLASNSLHLTSMCLQYRPTVVACFCIYLACKWSRWEIPQSTEGKHWFYYVDKTVSLDLLKQLTDEFIAIYEKSPARLKSKLNSIKAIAQGASNRTANSKDKPKEDWKITEMMKGYHSNITTPPELLNGNDSRDRDRDRERERERERDPSSLLPPPAMVPQQRRQDGGHQRSSSVSGVPGSSSSSSSSSHKMPNYPGGMPPEAHPDHKSKQPGYNNRMPSSHQRSSSSGLGSSGSGSQHSSSSSSSSSQQPGRPSMPVDYHKSSRGMPPVGVGMPPHGSHKMTSGSKPQQPQQQPVPHPSASNSSASGMSSKDKSQSNKMYPNAPPPYSNSAPQNPLMSRGGYPGASNGSQPPPPAGYGGHRSKSGSTVHGMPHFEQQLPYSQSQSYGHMQQQPVPQSQQQQMPPEASQHSLQSKNSLFSPEWPDIKKEPMSQSQPQLFNGLLPPPAPPGHDYKLNSHPRDKESPKKERLTPTKKDKHRPVMPPMGSGNSSSGSGSSKPMLPPHKKQIPHGGDLLTNPGESGSLKRPNEISGSQYGLNKLDEIDNSNMPREKLRKLDTTTGLPTYPNYEEKHTPLNMSNGIETTPDLVRSLLKESLCPSNASLLKPDALTMPGLKPPAELLEPMPAPATIKKEQGITPMTSLASGPAPMDLEVPTKQAGEIKEESSSKSEKKKKKDKHKHKEKDKSKDKTEKEERKKHKRDKQKDRSGSGGSKDSSLPNEPLKMVIKNPNGSLQAGASAPIKLKISKNKVEPNNYSAAAGLPGAIGYGLPPTTATTTSASIGAAAPVLPPYGAGGGGYSSSGGSSSGGSSKKKHSDRDRDKESKKNKSQDYAKYNGAGGGIFNPLGGAGAAPNMSGGMGAPMSTAVPPSMLLAPTGAVPPSAAGLAPPPMPVYNKK"}},
  "target": "Drosophila RNA polymerase II large subunit, P04052",
  "sequence (P04052 whole entry)": "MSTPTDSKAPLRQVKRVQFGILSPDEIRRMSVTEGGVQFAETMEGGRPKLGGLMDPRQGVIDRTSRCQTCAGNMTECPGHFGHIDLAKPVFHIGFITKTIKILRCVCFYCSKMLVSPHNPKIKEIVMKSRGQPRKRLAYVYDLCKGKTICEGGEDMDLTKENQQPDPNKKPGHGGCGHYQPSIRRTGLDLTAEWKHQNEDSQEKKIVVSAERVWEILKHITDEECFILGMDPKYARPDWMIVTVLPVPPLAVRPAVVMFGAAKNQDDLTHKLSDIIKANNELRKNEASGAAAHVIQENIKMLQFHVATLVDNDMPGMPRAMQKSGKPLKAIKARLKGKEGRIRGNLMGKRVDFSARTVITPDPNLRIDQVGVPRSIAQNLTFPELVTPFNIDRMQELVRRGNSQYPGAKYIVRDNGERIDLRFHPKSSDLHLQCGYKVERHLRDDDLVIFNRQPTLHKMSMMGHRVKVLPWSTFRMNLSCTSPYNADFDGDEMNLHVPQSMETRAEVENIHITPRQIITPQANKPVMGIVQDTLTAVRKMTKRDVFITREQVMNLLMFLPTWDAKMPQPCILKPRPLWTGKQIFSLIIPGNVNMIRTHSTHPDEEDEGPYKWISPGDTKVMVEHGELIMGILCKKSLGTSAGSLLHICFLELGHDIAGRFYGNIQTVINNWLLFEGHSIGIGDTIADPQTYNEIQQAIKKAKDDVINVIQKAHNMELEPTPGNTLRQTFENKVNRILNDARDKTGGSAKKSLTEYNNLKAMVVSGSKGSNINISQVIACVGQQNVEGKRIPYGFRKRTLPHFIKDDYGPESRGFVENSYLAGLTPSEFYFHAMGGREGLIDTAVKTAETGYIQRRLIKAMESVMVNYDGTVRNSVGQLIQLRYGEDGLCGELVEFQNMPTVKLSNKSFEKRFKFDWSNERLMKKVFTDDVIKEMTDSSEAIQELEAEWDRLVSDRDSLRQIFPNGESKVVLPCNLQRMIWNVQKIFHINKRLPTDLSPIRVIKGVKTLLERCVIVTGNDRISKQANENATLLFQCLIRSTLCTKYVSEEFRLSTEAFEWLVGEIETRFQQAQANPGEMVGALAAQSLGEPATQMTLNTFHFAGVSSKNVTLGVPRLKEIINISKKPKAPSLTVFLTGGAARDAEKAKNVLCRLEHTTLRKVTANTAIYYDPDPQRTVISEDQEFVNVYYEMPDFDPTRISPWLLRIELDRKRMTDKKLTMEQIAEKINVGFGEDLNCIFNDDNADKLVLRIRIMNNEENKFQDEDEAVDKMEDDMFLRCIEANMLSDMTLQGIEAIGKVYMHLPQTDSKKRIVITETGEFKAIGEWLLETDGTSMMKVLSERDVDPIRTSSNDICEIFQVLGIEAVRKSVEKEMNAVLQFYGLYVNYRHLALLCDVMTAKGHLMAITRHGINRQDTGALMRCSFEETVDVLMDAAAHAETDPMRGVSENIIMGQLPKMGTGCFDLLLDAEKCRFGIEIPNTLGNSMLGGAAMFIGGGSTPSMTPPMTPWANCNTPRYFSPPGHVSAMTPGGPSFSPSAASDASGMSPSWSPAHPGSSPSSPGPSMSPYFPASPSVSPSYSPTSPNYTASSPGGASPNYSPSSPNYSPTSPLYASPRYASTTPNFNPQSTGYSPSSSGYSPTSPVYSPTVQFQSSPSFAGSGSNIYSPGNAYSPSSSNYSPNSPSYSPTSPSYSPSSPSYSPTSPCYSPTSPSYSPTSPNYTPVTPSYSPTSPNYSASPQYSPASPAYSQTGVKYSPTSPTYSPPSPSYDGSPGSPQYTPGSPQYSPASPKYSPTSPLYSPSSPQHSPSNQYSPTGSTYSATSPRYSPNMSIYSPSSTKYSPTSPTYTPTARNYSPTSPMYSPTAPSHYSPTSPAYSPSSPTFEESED",
  "data": [
    {"protein": "B1", "values": [
      {"measurement": "CTD kinase assay (phosphate incorporation, mobility shift)", "result": "incubation of P-TEFb with intact RNA polymerase II caused the incorporation of phosphate into the large subunit and a shift to the IIo form"},
      {"measurement": "incorporation of label into the large subunit after chymotrypsin truncation of the CTD", "result": "the CTD-less polymerase (20 min digestion) was not detectably phosphorylated"}
    ]}
  ]
}
